{
  "source": "the nanobody polyreactivity screen of Harvey et al. (2022)",
  "data": [
    {"assay": "yeast display, Sf9 membrane polyspecificity reagent, FACS + sequencing; frameworks hold sequencing errors", "procedure,_shortened": "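Genes from sorted yeast were amplified by colony PCR, read by MiSeq 2 × 250 sequencing and filtered on CDR length. These cells carried a synthetic nanobody library in Saccharomyces cerevisiae BJ5465 and were sorted by FACS into low and high (top ~1%) gates on anti-HA and streptavidin fluorescence. Polyreactivity is labelled according to the gate of origin.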", "values": [
      {"sequence": "QDQLEESGGGLVQAGGSLRLSSADSGRIFYSYAMGWYRQAPGKERELVAAINSGDRTNYADSVKGRFTISRDNAKNTVYLQMNSLKPEDTAVYYCATRWFAFPWDEYNYWGQGTQGTVSS", "polyreactivity (PSR sort gate)": "low polyreactivity"},
      {"sequence": "QVQLVESGGGLVQAGGSLRLSCAASGRIFRYYAMGWYRQAPGKERELVATISGRGGSTYYADSVKGRFTISRDNAKNTVYLQMNSLKPEDTAVYYCNTVSTRYIYDYWGQGTQVTVSS", "polyreactivity (PSR sort gate)": "high polyreactivity"},
      {"sequence": "QVQLVESGGGLVQAGGSLRLSCAASGSIFTFYAMGWYRQAPGKERELVATINRIGGNTYYADSVKGRFTISRDNAKNTVYLQMNSLKPEDTAVYYCAAKPTYRGYGYGSWGQGTQVTVSS", "polyreactivity (PSR sort gate)": "low polyreactivity"},
      {"sequence": "QVQLVESGGGLVQAGGSLRLSCAASGSIFVYYTMGWYRQAPGKERELVAAISISGTSTYYADSVKGRFTNSRDNAKNTVYLQMNSLKPEDTAVYYCAADTYYGEDYWGQGTQVTVSS", "polyreactivity (PSR sort gate)": "low polyreactivity"},
      {"sequence": "QVQLVESGGGLVQAGGSLRLSCAASGRIFGRYVMGWYRQAPGKERELVAAITSGGSTYYADSVKGRFTISRDNAKNTVYLQMNSLKPEDTAVYYCATRLFYPRFYYWGQGTQVTVSS", "polyreactivity (PSR sort gate)": "high polyreactivity"},
      {"sequence": "QVQLVESGGGLVQAGGSLRLSCAASGRIFRRNTKGWYRQAPGKERELVAAITSAGGSTYADSVKGRFTISRDNAKNTVYFQMNSLKPEDTAVYYCATYVAYHRGYRTYDHWAQGTQVTVSS", "polyreactivity (PSR sort gate)": "low polyreactivity"},
      {"sequence": "QVQLVESVGGLVQAGGSLRLSFAASGRTFVWYVMGWYSQAPVKERELVAAISLRGGTTYYADSVKGRFTISRDNAKNTVYLQMNSLKPEDTAVYYCAIAGIRHVTSKFKGYHFGYWGQGTQVTVSS", "polyreactivity (PSR sort gate)": "low polyreactivity"},
      {"sequence": "QVQLVESGGGLDQAGGSLRLSCAASGSIFLRYAMGWYRQAPGKERELVAAITTGGGSTYYADSVKGRFTISRDNAKNTVYLQMNSLKPEDTAVYYCAKRAQYHWRGRDDYSYYYWGQGTQVTVSS", "polyreactivity (PSR sort gate)": "low polyreactivity"},
      {"sequence": "QVQLVETGGGLVQAGGSLLLSCAASGNTFQYYAMGCYRQAPGKERELVAAITTGGSTNYADSVKGRFTISRDNAKNTVYLQMNSLKPEDTAVYYCAARGCVSKRISDYWGQGTQVTVSS", "polyreactivity (PSR sort gate)": "low polyreactivity"},
      {"sequence": "QVQLVESGGGLVQAGGSLRLSCAASGFTFRNYAMGWYRQAPGKERELVAAISKRGGNTYYADSVKGRFTISRDNAKNTVYLQMNSLKPEDTAVYYCAAQRYTGQGSGYGYWGQGTQVTVSS", "polyreactivity (PSR sort gate)": "high polyreactivity"},
      {"sequence": "QVQLVESGGGLVQAGGTLRLSCAASGSTFWRNTMEWYRQAPGKERELVAAITGCGGRTYYADSVKGRFTISRDNAKNTVYLQMNSLKPEDTAVYYCAADGRGVHYDYWGQGSQVTVSS", "polyreactivity (PSR sort gate)": "high polyreactivity"},
      {"sequence": "QVQLVESGGGLVQAGGRLRLSCAASGSISASYAMGWSRQAPGKERELVAAITSGGSTYYADSVKGRFTFSRDNAKNTVYFQMNSLKPEETAVYYCAKRPKRTYYPHIGYDYWGQGTQVTVSS", "polyreactivity (PSR sort gate)": "low polyreactivity"},
      {"sequence": "QVQLVESGGGLVQAGGSLRLTCAASGSTFSYYAMGWYRQPPRKERELVAVITWSGASTYYADSVKGRFTISRDNAKNTVYLQMNSLKPEDTAVYYCAADKYLSYDYWGQGTQVSVSS", "polyreactivity (PSR sort gate)": "low polyreactivity"},
      {"sequence": "QVQLVESGAGLVQAGGSLRLSCAASGSIFNSYAMGWYRQPPGKERELVAAISKAGGSTYYADSVKGRFTISRDNAKNTVYLQMNSQKPEDTAVYYCAARYGRCYDSAYNYWGQGTQVTVSS", "polyreactivity (PSR sort gate)": "high polyreactivity"},
      {"sequence": "QVQLVESGGVLVQAGGSLRLSCAASGRIFPYYAMGWYRQAPGKEREMVAAINSGGSTYYADSVKGRFTISRDNAKNTVYLQMNSLKPEDTAVYYCNADVLFEDGFFWDDYWGQGTQVTVSS", "polyreactivity (PSR sort gate)": "low polyreactivity"},
      {"sequence": "QFQLVESGGGLVQARGSLRLSCAASGSIFDLNAMGWYRPAPGKERELVAAISSGGGTYYADSVKGRFTISRDNAKNTVYFQMYSLKPDDSAVYYCAAGKSSPRRIFEYWGQGTEVTVSS", "polyreactivity (PSR sort gate)": "high polyreactivity"},
      {"sequence": "QVQLVESGGGLVQAGGSLRLSCAASGSTISRYAMGWYRQAPGKEREFVAAISWRGGSTYYADSVKGRFTISRDNAKNTVYLQLNSLKPEDTAVYYCNADYRYARKGHYGKFGYWGQGTQVNVSS", "polyreactivity (PSR sort gate)": "high polyreactivity"},
      {"sequence": "QVQLVESGGGLVQAGGSLRLSCAASGRIFGYNTMGWYRQAPGKERELVAAINSGGRTYYADSVKGRFTISRDNAKNTVYLQMNSLKPEDTAVYYCAKPGLYFATFKKYDYWGQGTQVTVSS", "polyreactivity (PSR sort gate)": "high polyreactivity"},
      {"sequence": "QLQLQESGGGLVQAGGSLRLSCAASGSISHYIFMGWYRKAPGKEREFVAGIGYGGTTNYADSVKGRFTISRDNAINNVYLQMNSLKPEDTAMYYCAAREATEFYLYYWGQGTQVTVSS", "polyreactivity (PSR sort gate)": "low polyreactivity"},
      {"sequence": "QVQIVESGGGLVQAGGSLRVSCAPSGNISYSYDMGWYRQAPGKERELVASITESGGSTYYADSVKGRFTISRDNAKNTVYFQMNILKPEDTAVYYCYWGHGTQVTVSS", "polyreactivity (PSR sort gate)": "low polyreactivity"},
      {"sequence": "QVQLVESGGGLVQAGGSLSLSCAASGFIFRGYAMGWNRQAPGKEREFVAAISRRGGSTYYADSVKGRFTISRDNAKNTVYLQMNSLKPEDTAVYYCAARYSPVWHKYYYWGQGTEVTVSS", "polyreactivity (PSR sort gate)": "high polyreactivity"},
      {"sequence": "QVQLVESGGGLVQAGGSLRLSCAASGITFYLYALGWYRQAPGKERELVAAISSSGGRTYYADSVKGRFTISRDNAKNTVYLQMNSLKPEDTAVYYCAARRYGVPPTYDYWGQGTQVTVSS", "polyreactivity (PSR sort gate)": "high polyreactivity"},
      {"sequence": "QVQLVESGGGLVQAGGSLRLSCAASGFIFPKNAMGWYRQAPGKERELVAAISKRGGSTYYADSVKGRFTISRDNAKNTVYLQMNSLKPEDTAVYYCADGYRTRRGLGYYYWGQGTQVTVSS", "polyreactivity (PSR sort gate)": "high polyreactivity"},
      {"sequence": "QVQLVESGGGLVQAGGSLRLSCAASGGTFPRNAMGWYRQAPGKERELVAAISRRGGSTYYADSVKGRFTISRDNAKNTVYLQMNSLKPEDTAVYYCATVQDKTYEYGYWGQGTQVTVSS", "polyreactivity (PSR sort gate)": "high polyreactivity"},
      {"sequence": "QVQLVESGGGLVQAGGSLRLSCAASGRIFGKNDMGWYRQAPGKEREFVATIDWSGGSTYYADSVKGRFTISRDNAKNTVYLQMNSLKPEDTAVYYCAASGWNRYLFDYWGQGTQVTVSS", "polyreactivity (PSR sort gate)": "low polyreactivity"},
      {"sequence": "QVQLVESGGGLVQAGGSLRLSCAASGYTFWDYTMGWYRQAPGKEREFVAAINWSGGSTYYADSVKGRFTISRDNAKNTVYLQMNSLKPEDTAVYYCAARRGGRRGYDYWGQGTQVTVSS", "polyreactivity (PSR sort gate)": "high polyreactivity"},
      {"sequence": "QVQLVESGGGLVQAGGSLRLSCAASGFIFSYYAKGWYRQAPGKERELVAAIDGSGGSTYYADSVKGRFTISRDNAKNTVYLQMNSLKPVDTAVYYCNTLIFIQGLGYDYWGQGTQVTVSS", "polyreactivity (PSR sort gate)": "high polyreactivity"},
      {"sequence": "QVQLVESGGGLVQAGGSLRLTCAASGRIFGTNAMGWYRQAPGKERELVADITSGGSTNYADSVKGRFTISRDNAKNTVYLLMNSLKPEDTAVYYCAADVIGDLRWYRDEYWGQGTQVTVSS", "polyreactivity (PSR sort gate)": "low polyreactivity"},
      {"sequence": "QEQLQGSGGGLVQAGGSLRLTCAASGYIFQNVPMGWNRQAPGKERQLLAGIDNGTSTNYADSVNGRFTISRDNAKNTVYLQMNSLKPEDTAVYYCAAAGQADDTLGYWGQGTQVTVSS", "polyreactivity (PSR sort gate)": "low polyreactivity"},
      {"sequence": "QVQLVESGGGLVQAGGSLRLSCAASGFIFEWYDMGWYRQAPGKERELVASISWSGGSTYYADSVKGRFTISRDNAKNTVYLQMNSLKPEDTAVYYCNTPSYTYWHWYDYWGQGTQVTVSS", "polyreactivity (PSR sort gate)": "high polyreactivity"},
      {"sequence": "QVQLVESGGGLVQAGGSLRLSCAASGSIFEPNAMGWYRQAPGKERELVAAISSGGSTYYADSVKGRFTISRDNAKNTVYLQMNSLKPEDTAVYYCAAYYHGYYSWGQGTQVTVSS", "polyreactivity (PSR sort gate)": "high polyreactivity"},
      {"sequence": "QVQLVESGGGLVQAGRSLRLSCAASGSTYAKYAMGWYRQAPGKEREVVAVISRTGTITRYADSEKGRFTISRDNAKNTVYLQMNSLKPEDTAVYYCAATIRAYNQHGFLYPYYYWGQGNQVTVSS", "polyreactivity (PSR sort gate)": "high polyreactivity"},
      {"sequence": "QVQLVESGGGLVQAGGSLRLSCAASGRTFGYYAMGWYRQAPGKEREFVAAISFRTTSTYYADSVKGRFTISRDNAKNTVYLQMNSLKPEDTAVYYCNADWYLLSTWYDYWGQGTQVTVSS", "polyreactivity (PSR sort gate)": "high polyreactivity"},
      {"sequence": "QVQLVESGGGLVQAGGSLRLSCAASGFTFPYYAMGWYRQAPGKERELVAAITYSGDSTYYADSVKGRFTISRDNAKNTVYLQMNSLKPEDTAVYYCNVTPDWAVTDDYWGQGTQVTVSS", "polyreactivity (PSR sort gate)": "low polyreactivity"},
      {"sequence": "QVQLVESGGGLVQAGGSLRLSSAASGSILTINAMGWYRLAPGKERELVARITISSGSTYYADSVKGRFTISRDNAKNTVYLQLNSLKPEDTAVYYCAKLRYPYLFWDDSEYWGQGTQVTVSS", "polyreactivity (PSR sort gate)": "low polyreactivity"},
      {"sequence": "QVQLVESGGGLVQAGGSLRLSCAASVRIFGSNVMGWYRQAPGKERELVASISSGGTTYYADSVKGRFTISRDNAKNTVYLHMNSLKPEDTAVYYCAKQWTRIYQYRWYPGTRTGYDYWGQGTQVTVSS", "polyreactivity (PSR sort gate)": "high polyreactivity"},
      {"sequence": "QVQLVESGGGLVQAGGSLRLSCAASGSICAYYAMGWYRQAPGKERELVAAISGTGGSTNYADSVKGRFTISRDNAKNNVYLQMNSLKPEDTAVYYCAKDYSFQWRNEFNLAGEYDYWGQGTQVTVSS", "polyreactivity (PSR sort gate)": "low polyreactivity"},
      {"sequence": "QVQLVESGGGLVQAGGSLRLSAASGSTLAGNTMGWYRQAPGKERELVAAINDSGGSTYYADSVKGRFTISRDNAKNTVYLQMNSLKPEDTAVYYCNAEGSAYIEDGYDYWGQGTQVTVSS", "polyreactivity (PSR sort gate)": "low polyreactivity"},
      {"sequence": "QVQLVESGGGLVQAGGSLRLSCAASGSIFYYNTMGWYRQAPGKERELVAAIRSSSGRTYYADSVKGRFTISRDNAKNTVYLQMNSLKPEDTAVYYCATVHSYTIQRYDYWGQGTQVTVSS", "polyreactivity (PSR sort gate)": "high polyreactivity"},
      {"sequence": "QVQLVESGGGLVQAGGSLRLSCAASGSISVYNAMGWYRQAPGKERELVAAISWSGGRTSYADSVKGRFTISRDNAKITVYLQMNSLKPEDTALYYCAADELTVLWDEDYWGQGTQVTVSS", "polyreactivity (PSR sort gate)": "low polyreactivity"},
      {"sequence": "QVQLVESGGGIVQAGGSLRLSCAASGRTFNFYAMGWYRQAPGKERELVAAIRKSGASTYYADSVKGRFTISRDNAKNTVYLQMNSLKPEDTAVYYCAADGQVSYALGFDYWGQGTQVTVSS", "polyreactivity (PSR sort gate)": "high polyreactivity"},
      {"sequence": "QVQLVESGGGLVQAGGSLRLSCAASGRTFRVYAMGWYRQAPGKERELVASITNDGSTYADSVKGRFTISRDNAKNTVYLQMNSLKPEDTAVYFCAARFPQWRYSRRTGERFDYWGQGTQVTVSS", "polyreactivity (PSR sort gate)": "low polyreactivity"},
      {"sequence": "QVQLVESGGGLVQAGGSLRLSCAASGITFATNAMGWYRQAPGKERELVAAISWSGGSTYYADSVKGRFTISRDNAKNTVYLQMNSLKPEDTAVYYCATGYSVWYDYWGQGTQVTLSS", "polyreactivity (PSR sort gate)": "low polyreactivity"}
    ]}
  ]
}
